{
  "source": "paper PMC10373542",
  "target": "SARS-CoV-2 WA-1 stabilized S trimer, HexaPro (SARS-CoV-2) (UniProt P0DTC2)",
  "test": "BLI",
  "data": [
    {"substance": "CR3022 monoclonal antibody", "values": [
      {"measurement": "fold increase of binding when S protein is bound to WRAIR-2063", "result": 6, "unit": "fold"}
    ]}
  ]
}
